Results: patent publication US20260232827A1, “ANTIBODY-DRUG CONJUGATES TARGETING NAPI2B AND METHODS OF USE” (Zymeworks BC Inc., priority 2023, published 2026)

Experiments:
human NaPi2b = target: T1, human NaPi2b (Homo sapiens, UniProt O95436); assay: Flow cytometry binding to transfected HEK293-6e cells; settings: huNaPi2b (full length human NaPi2b), 24 hours at 4° C.
T1 construct: Full length human NaPi2b; host or cells: HEK293-6e
T1 sequence (O95436 1-690): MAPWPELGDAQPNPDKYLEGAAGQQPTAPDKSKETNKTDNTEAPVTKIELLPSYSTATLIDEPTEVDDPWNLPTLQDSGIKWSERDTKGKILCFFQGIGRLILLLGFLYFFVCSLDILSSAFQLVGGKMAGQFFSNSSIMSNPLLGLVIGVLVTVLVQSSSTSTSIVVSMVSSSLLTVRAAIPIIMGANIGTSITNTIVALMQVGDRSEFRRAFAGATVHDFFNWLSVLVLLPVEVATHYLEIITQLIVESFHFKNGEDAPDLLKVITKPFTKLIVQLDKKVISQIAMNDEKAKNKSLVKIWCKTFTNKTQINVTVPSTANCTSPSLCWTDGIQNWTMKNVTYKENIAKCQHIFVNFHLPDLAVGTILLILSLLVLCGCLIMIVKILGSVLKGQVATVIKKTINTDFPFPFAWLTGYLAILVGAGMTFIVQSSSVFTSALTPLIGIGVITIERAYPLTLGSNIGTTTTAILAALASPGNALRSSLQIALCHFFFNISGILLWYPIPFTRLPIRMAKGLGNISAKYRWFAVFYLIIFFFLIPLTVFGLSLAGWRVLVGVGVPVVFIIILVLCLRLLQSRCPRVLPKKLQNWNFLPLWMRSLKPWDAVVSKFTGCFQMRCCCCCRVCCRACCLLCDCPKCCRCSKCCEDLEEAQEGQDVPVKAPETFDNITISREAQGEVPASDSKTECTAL
Procedure: The binding cross-reactivity of humanized antibody variant v29456 to human, cynomolgus and mouse NaPi2b was assessed by flow cytometry using HEK293-6e transfected cells.
Following staining and washing, fluorescence was detected by flow cytometry on BD LSRFortessa™ Cell Analyzer (BD Biosciences, Franklin Lake, NJ) with 10,000 minimum events collected per well. The AF647/APC-A GeoMean (fluorescence signal geometric mean, proportional to anti-Human AF647 binding) was calculated for the live singlet cell population for each primary antibody using FlowJo™ v8 software (BD Biosciences, Franklin Lake, NJ). The Bmax and Kd of each primary antibody were calculated using GraphPad Prism Version 9 (GraphPad Software, San Diego, CA)
(§1) Following incubation and washing, fluorescence was detected by flow cytometry on a BD LSRFortessa™ Cell Analyzer (BD Biosciences, Franklin Lake, NJ) with 1,000 minimum events collected per well.
as §1, §1

[1] = tested on: Construct 5 (chimeric human NaPi2b, region 304-348); assay: Binding region mapping, flow cytometry on transfected HEK293-6e cells; settings: 24 hours at 4° C.
Procedure: as §1

palivizumab [palivizumab (v21995)] was tested, and the “Background-Subtracted AF647 Mean Fluorescence Intensity” value (human NaPi2b; antibody 2.0 nM) was -22, the “Background-Subtracted AF647 Mean Fluorescence Intensity” value (human NaPi2b; antibody 20.0 nM) was 13 and the “Background-Subtracted AF647 Mean Fluorescence Intensity” value (human NaPi2b; antibody 200.0 nM) was 19. For the same substance, the “Background-Subtracted AF647 Mean Fluorescence Intensity” value ([1]; antibody 2.0 nM) was -2, the “Background-Subtracted AF647 Mean Fluorescence Intensity” value ([1]; antibody 20.0 nM) was 123 and the “Background-Subtracted AF647 Mean Fluorescence Intensity” value ([1]; antibody 200.0 nM) was 40.
